Results reported in US9827288B2, “Method for treating a refractory or relapsed lung cancer” (MYCOMAGIC BIOTECHNOLOGY CO., LTD., priority 2015, dated 2017).

Key:
LLC1 cells = experiment: Tumor growth in LLC1 allograft mice; type: in vivo; details: vs PBS
Protocol: Male C57BL/6 (6-8 weeks of age) mice were subcutaneously inoculated with LLC1 cells and randomly divided into two groups. Seven days after implantation, the mice were treated with GMI (5 mg/kg) via i.p. injections at intervals of 4 days. The control group received an equal volume of sterile PBS.
The mice will be weighed and randomly distributed across the different experimental groups (n=5). At day 0, approximately 2×10^5 lung cancer cells suspended in 100 μl serum free DMEM will be subcutaneously (s.c.) implanted into the right flank of all mice for easy observed detection. The mice were sacrificed on the 25th day and the tumors were then excised. […] Tumor size was measured (FIG. 1A) for each mouse using a set of digital calipers at 4 days, and the tumor volume was calculated by the formula L1×L2×H, where L1 is long diameter, L2 is the short diameter and H is the height of the tumor. Representative images of the tumors on the 25th day (FIG. 1B).
We further examined the effect of rLZ-8 on mice with LLC1-allograft in vivo. LLC1 cells were subcutaneously injected into male C57BL6 mice, and the tumor growth rate was assessed over 17 days.

EGFR [1] = experiment: Western blot of EGFR level in H1975 cells; type: cell-based, human
Protocol: Knocking down of EGFR by EGFR siRNA activated activity of caspase3/7, resulting in apoptosis in gefitinib-resistant H1975 cells (Chen G et al., BMC Med. 2012; 10:28). To investigate the apoptosis, human H1975 cells were seed in 60-mm plat-dish and incubated with rLZ-8 (5 μg/ml) and GMI (10 μg/ml) for 48 hours and 72 hours, respectively.

EGFR [2] = target: T1, EGFR (Homo sapiens, UniProt P00533); experiment: Western blotting to detect expression of EGFR in CL1-5 and H226 cells; type: cell-based; set-up: endogenous in cells; host or cells: CL1-5 and H226 cells; details: 5 μg/ml for CL1-5 and 10 μg/ml for H226, 0-12 h
Protocol: CL1-5 and H226 cells were incubated with rLZ-8 and GMI (5 μg/ml for CL1-5 and 10 μg/ml for H226) for 0-12 h followed by western blotting to detect expression of EGFR. […] The regulatory mechanisms of ligand-induced EGFR degradation dependent on endocytosis (Hicke L., FASEB J. 1997; 11:1215-26.). To investigate whether rLZ-8-induced EGFR degradation by inducing endocytosis, we performed depletion of clathrin heavy chain experiments in NSCLC cells. Using clathrin heavy chain shRNAs such as #2755 (sh-S1), #2757 (sh-S2) and #7981 (sh-S3), we confirm the efficacy of clathrin shRNAs, and we found (via Western blot analysis) that clathrin knockdown leads to a reduction in the overall protein levels of clathrin in CL1-5 and H226 cells (FIG. 4B). Next, we examined whether the rLZ-8-induced EGFR degradation dependent on clathrin-mediated endocytosis in NSCLC cells.

EGFR [3] = target: T1, EGFR; experiment: Immunoprecipitation assay with anti-EGFR and anti-his-tag antibody; type: binding; set-up: After treatment of rLZ-8 in A549; endogenous in cells; host or cells: A549 cells; details: A549 cells treated with rLZ-8
Protocol: (§1) Science the downregulation of EGFR by rLZ-8 and GMI may involve an intracellular pathway similar to that induced by EGF-mediated EGFR endocytosis and degradation, we hypothesized that rLZ-8 and GMI could interact with EGFR. The co-locolization of rLZ-8/GMI and EGFR were determined by fluorescence microscopy. […] To further examine the association of rLZ-8 and EGFR, immunoprecipitation assay was performed by anti-EGFR and anti-his-tag (for detecting rLZ-8) antibody.

EGFR [4] = target: T1, EGFR; experiment: Co-localization with EGFR by fluorescence microscopy; type: cell-based; set-up: endogenous in cells; host or cells: CL1-5 and H226 cells; details: H226 cells
Protocol: as §1

Molecule | tumor volume (LLC1 cells; LLC1-bearing male C57BL/6 mice, GMI 5 mg/kg i.p. at intervals of 4 days from day 7, to 25th day) | EGFR level (EGFR [1]; GMI 10 μg/ml, 72 hours) | EGFR protein levels (EGFR [2]) | tumor volume (LLC1 cells; LLC1-bearing male C57BL6 mice, rLZ-8 7.5 mg/kg, over 17 days) | tumor weight (LLC1 cells; LLC1-bearing male C57BL6 mice, rLZ-8 7.5 mg/kg) | association with EGFR (immunoprecipitation) (EGFR [3]) | co-localization with EGFR (EGFR [4]) | EGFR level (EGFR [1]; rLZ-8 5 μg/ml, 48 hours)
GMI: recombinant immunomodulatory protein derived from Ganoderma microsporum, manufactured by Mycomagic Biotechnology per U.S. Pat. No. 7,601,808 (protein, Ganoderma microsporum (GMI) or a recombinant thereof (reGMI)) EAEAEFMSDTALIFTLAWNVKQLAFDYTPNWGRGRPSSFIDTVTFPTVLTDKAYTYRVVVSGKDLGVRPSYAVESDGSQKINFLEYNSGYGIADTNTIQVYVIDPDTGNNFIVAQWNYLEQKLISEEDLNSAVDHHHHHH | significantly decreases tumor volume | induced downregulation of EGFR level | significantly suppressed the EGFR protein levels |  |  |  |  | 
rLZ-8: his-tagged recombinant fungal immunomodulatory protein LZ-8 from Ganoderma lucidum (SEQ ID NO:5) (protein, listed as Ganoderma lucidum, His tag) MSDTALIFRLAWDVKKLSFDYTPNWGRGNPNNFIDTVTTFPKVLTDKAYTYRVAVSGRNLGVKPSYAVESDGSQKVNFLEYNSGYGIADTNTIQVFVVDPDTNNDFIIAQWN |  |  | significantly suppressed the EGFR protein levels | significantly decreases tumor volume | significantly decreases | present in the immunoprecipitants obtained by the anti-EGFR antibody | mainly co-localized on the plasma membrane and formed the punctuate intracellular clusters in the cytoplasm | induced downregulation of EGFR level
